Results: patent US20040224362A1

Target: anti-FLAG M2 mouse monoclonal IgG1 (Sigma-Aldrich PN F-3165)
Assay: capture on a 1 m Protein G capillary, elution with 14.7 mM phosphoric acid pH 2.2, Bradford assay at 595 nm

Substance “Protein G (CalBiochem, San Diego, Calif., PN 539303) (from UniProt P19909 303-497)” has an amount of IgG trapped and eluted of 2.5 µg.
